Measurements: IntAct's records for PubMed 25512093

Target: bicd2_human BICD2 (UniProt Q8TD16)
Sequence of UniProt Q8TD16 (Q8TD16 whole entry): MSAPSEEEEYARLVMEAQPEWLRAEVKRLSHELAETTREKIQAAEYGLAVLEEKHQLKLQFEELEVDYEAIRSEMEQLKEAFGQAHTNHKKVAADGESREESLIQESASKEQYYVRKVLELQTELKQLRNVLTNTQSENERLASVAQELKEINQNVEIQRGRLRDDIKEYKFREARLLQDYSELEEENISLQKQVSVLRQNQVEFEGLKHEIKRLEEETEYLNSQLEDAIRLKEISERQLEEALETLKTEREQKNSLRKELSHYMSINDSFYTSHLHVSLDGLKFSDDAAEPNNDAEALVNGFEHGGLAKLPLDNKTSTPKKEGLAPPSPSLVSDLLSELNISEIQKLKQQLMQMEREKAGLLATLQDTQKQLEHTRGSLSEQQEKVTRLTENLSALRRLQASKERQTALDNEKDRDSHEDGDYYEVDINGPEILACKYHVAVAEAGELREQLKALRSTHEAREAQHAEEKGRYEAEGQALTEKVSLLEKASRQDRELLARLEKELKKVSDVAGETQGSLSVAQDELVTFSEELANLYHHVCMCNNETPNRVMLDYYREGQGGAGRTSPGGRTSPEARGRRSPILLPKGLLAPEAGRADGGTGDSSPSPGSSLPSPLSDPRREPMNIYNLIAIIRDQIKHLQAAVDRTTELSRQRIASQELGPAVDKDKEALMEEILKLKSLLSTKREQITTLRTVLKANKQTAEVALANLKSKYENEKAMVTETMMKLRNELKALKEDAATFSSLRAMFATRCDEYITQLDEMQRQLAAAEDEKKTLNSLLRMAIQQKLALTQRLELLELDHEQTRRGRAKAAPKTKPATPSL

Substance | effect of a mutation on the interaction
Cytoplasmic dynein 1 heavy chain 1 (Homo sapiens), Q14204 R598C | increasing interaction strength
Cytoplasmic dynein 1 heavy chain 1 (Homo sapiens), Q14204 R264L | increasing interaction strength
